# Assay results as given in patent US20110217282.
# Experiments:
# [1] = biological target: T1, C-terminal histidine-tagged YgiT
# T1 chain: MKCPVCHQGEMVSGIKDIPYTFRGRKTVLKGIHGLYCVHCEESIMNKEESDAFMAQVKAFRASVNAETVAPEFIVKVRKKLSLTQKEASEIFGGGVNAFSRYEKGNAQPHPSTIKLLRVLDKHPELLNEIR
# [2] = biological target: T2, MazE, P0AE72
# T2 chain: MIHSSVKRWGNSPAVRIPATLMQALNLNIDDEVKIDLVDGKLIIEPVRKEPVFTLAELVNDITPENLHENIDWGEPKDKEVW
protein,measurement,setting,value
MazF (protein) MVSRYVPDMGDLIWVDFDPTKGSEQAGHRPAVVLSPFMYNNKTGMCLCVPCTTQSKGYPFEVVLSGQERDGVALADQVKSIAWRARGATKKGTVAPEELQLIKAKINVLIG,cleavage of MS2 RNA (agarose gel),[1],"when MazF was incubated with purified YgiT-H, its activity was not inhibited"
same,cleavage of MS2 RNA (agarose gel),[2],"its activity was completely inhibited when it was preincubated with purified MazE, the antidote of MazF"
